The target in this data set is T1, CasEnd-2 (synthetic construct).
T1 chain: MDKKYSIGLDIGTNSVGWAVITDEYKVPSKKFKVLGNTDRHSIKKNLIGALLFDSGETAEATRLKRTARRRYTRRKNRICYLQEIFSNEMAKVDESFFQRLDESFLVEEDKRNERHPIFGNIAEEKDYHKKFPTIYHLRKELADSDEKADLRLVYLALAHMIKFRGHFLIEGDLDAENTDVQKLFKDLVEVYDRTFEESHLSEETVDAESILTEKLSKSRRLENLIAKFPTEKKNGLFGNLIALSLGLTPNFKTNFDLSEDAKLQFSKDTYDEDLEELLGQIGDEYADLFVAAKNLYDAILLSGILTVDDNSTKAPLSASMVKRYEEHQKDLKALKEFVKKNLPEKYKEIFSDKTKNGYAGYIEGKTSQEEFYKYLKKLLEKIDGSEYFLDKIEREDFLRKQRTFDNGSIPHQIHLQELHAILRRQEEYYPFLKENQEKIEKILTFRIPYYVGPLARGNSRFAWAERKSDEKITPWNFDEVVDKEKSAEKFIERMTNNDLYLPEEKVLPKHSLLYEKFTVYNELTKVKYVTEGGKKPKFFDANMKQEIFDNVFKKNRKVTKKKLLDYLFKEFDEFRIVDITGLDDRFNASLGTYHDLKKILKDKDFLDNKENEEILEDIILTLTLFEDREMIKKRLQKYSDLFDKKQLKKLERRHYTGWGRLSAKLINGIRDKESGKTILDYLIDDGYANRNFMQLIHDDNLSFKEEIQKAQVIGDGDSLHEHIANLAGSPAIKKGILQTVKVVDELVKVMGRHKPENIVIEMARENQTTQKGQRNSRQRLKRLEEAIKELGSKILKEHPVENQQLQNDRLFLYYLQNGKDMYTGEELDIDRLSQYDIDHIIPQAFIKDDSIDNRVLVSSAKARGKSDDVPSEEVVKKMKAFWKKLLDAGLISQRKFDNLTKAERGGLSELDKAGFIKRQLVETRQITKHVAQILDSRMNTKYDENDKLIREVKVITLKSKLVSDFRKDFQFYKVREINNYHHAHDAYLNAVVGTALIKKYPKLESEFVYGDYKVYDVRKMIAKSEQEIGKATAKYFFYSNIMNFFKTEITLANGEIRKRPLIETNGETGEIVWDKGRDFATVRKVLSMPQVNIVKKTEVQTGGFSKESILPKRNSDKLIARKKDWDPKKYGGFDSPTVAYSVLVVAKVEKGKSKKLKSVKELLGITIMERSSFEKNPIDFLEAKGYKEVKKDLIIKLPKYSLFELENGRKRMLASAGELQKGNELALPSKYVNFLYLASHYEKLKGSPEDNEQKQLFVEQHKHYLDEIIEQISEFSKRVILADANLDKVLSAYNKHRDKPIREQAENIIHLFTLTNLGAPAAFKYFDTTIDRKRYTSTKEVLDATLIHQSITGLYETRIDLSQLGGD
Briefly: cell_activity; +++; HEK293T; PAM not stated. Here is the method:
The ability of the candidate endonucleases, including endonucleases 1-38 (CasEnds 1-38) (set forth in Table 1 and SEQ ID NOS: 1-38, respectively), to mediate target nucleic acid editing was assessed utilizing a blue fluorescent protein (BFP) to green fluorescent protein (GFP) conversion assay, wherein programmed nucleotide editing of the BFP gene was measured by the expression of GFP (signifying the conversion of […] via the programmed nucleotide edit in the BFP gene). The conversion assay was conducted utilizing the reverse transcriptase-based system (as described above in Example 2) comprising a template RNA (designed to convert BFP to GFP) and a fusion protein comprising a retroviral reverse transcriptase and the individual subject Cas endonuclease. The amino acid sequence of the base portion of the fusion protein (without the individual subject Cas endonuclease) is set forth in Table 7 (SEQ ID NO: 43).
Briefly, 200 ng of plasmid DNA encoding the subject fusion protein (containing one of the subject CasEnds) and 200 ng of template RNA (in plasmid format) were added to 25 μL SF buffer containing 250,000 HEK293T BFP-expressing cells. Nucleofection was mediated utilizing program DS-150. The day of nucleofection was marked as day 0. At day 4, the cells were harvested and analyzed by flow cytometry to assess the level of BFP and GFP expression in HEK293T cells. Cells having GFP signal were defined as having undergone a successful editing event, and the percent of cells that were GFP+ on day 4 was used to determine the performance of each Cas endonuclease.

B1: BFP-to-GFP template RNA ; BFP reporter protospacer (ssRNA ; dsDNA)
RNA: GCCGAAGCACUGCACGCCGUGUUUUAGAGCUAGAAAUAGCAAGUUAAAAUAAGGCUAGUCCGUUAUCAACUUGAAAAAGUGGCACCGAGUCGGUGCACCCUGACGUACGGCGUGCAGUGCUU
DNA 1: GCCGAAGCACTGCACGCCGT
DNA 2: ACGGCGTGCAGTGCTTCGGC
For B1, the activity is ≥ 100 % of reference.

Values taken from patent publication US20250092426, “CAS ENDONUCLEASES AND RELATED METHODS” (Flagship Pioneering Innovations VII, LLC, published 2025).
